B1: spartin 155-367 (protein)
chain: APASLSLPSQSCPAEAPPAYTPQAAEGHYTVSYGTDSGEFSSVGEEFYRNHSQPPPLETLGLDADELILIPNGVQIFFVNPAGEVSAPSYPGYLRIVRFLDNSLDTVLNRPPGFLQVCDWLYPLVPDRSPVLKCTAGAYMFPDTMLQAAGCFVGVVLSSELPEDDRELFEDLLRQMSDLRLQANWNRAEEENEFQIPGRTRPSSDQLKEASGT
B2: AIP4 PRR/WWI-IV 155-486 (protein)
chain: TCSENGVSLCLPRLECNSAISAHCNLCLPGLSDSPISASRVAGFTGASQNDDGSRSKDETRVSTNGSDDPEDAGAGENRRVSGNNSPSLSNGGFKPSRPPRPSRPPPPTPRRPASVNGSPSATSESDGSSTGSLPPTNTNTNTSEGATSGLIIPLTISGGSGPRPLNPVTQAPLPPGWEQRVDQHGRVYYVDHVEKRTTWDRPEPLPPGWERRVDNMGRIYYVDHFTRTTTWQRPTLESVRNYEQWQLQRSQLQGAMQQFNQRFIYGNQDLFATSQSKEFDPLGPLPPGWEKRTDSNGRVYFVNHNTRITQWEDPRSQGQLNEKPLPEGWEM

Test [1] has as its target B2. Kind of test: ELISA. (In general: ELISA stands for enzyme-linked immunosorbent assay.)
The target in test [2] is B2. The test is described as follows: competition ELISA.
Test [3] concerns the target B2. The test is described as follows: competition ELISA. This is another data set of the same source.
The target in test [4] is AIP4 HECT domain HECT (Homo sapiens, UniProt Q96J02). The test is described as follows: ELISA.
Sequence of AIP4 HECT domain HECT (Q96J02 566-903): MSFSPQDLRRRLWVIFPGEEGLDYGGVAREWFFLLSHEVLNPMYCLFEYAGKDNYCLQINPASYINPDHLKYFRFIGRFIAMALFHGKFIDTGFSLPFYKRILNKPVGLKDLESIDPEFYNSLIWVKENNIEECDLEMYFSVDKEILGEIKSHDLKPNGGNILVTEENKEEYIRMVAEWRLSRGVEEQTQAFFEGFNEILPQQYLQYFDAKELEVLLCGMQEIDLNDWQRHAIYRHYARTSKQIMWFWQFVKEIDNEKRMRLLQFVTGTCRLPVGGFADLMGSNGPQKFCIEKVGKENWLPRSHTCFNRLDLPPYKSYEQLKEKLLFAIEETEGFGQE

In general, Kd refers to the free concentration of one partner at which half of the binding sites on the other are occupied at equilibrium, for simple one-to-one binding. Read a high Kd as a looser complex. As usually defined, the Ki is the equilibrium dissociation constant of an inhibitor or competing ligand from its target. The low end stands for a stronger hold on the target, the high end for a looser hold on the target. As a reminder, the IC50 is the concentration that gives 50% inhibition. Low readings indicate greater potency in that assay, high ones weaker potency in that assay. As for B1, the affinity in test [1], expressed as Kd, was 340 nM. In test [2], this molecule registered an inhibition constant (Ki) of 210 nM. For the same molecule, the concentration for half-maximal inhibition (IC50) in test [3] worked out at 560 nM.
B2 had a Kd in test [4] of 2000 nM.

These data come from article PMC2887783 (2010).
